# Source: article doi:10.1101/2024.06.27.601040 (bioRxiv, 2024)
# Biological target: MVP3-5 (residues 102-274 of human MVP), wild type (human, UniProt Q14764 102-274)
# Assay: SEC
# Chain of MVP3-5 (residues 102-274 of human MVP), wild type (Q14764 102-274): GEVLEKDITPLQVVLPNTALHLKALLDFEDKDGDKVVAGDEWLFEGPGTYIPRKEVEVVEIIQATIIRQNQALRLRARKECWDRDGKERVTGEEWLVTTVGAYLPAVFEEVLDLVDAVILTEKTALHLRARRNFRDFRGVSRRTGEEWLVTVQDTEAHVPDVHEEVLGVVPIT
binder,measurement,value
"MINT domain (residues 1562-1724 of human PARP4), wild type (domain or fragment) VCIQHWQDAVPWTELLSLQTEDGFWKLTPELGLILNLNTNGLHSFLKQKGIQSLGVKGRECLLDLIATMLVLQFIRTRLEKEGIVFKSLMKMDDASISRNIPWAFEAIKQASEWVRRTEGQYPSICPRLELGNDWDSATKQLLGLQPISTVSPLHRVLHYSQG",binding result,binds
